Results on 1 molecule are retold here after patent US20130243767A1.

Ends that are not written are not given here.

The assay deals with CD32 (FcγRII) on human plasmacytoid dendritic cells (human) (UniProt P12318). The experiment in a line: cell-based or functional assay.
Sequence of CD32 (FcγRII) on human plasmacytoid dendritic cells (human) (P12318 34-317): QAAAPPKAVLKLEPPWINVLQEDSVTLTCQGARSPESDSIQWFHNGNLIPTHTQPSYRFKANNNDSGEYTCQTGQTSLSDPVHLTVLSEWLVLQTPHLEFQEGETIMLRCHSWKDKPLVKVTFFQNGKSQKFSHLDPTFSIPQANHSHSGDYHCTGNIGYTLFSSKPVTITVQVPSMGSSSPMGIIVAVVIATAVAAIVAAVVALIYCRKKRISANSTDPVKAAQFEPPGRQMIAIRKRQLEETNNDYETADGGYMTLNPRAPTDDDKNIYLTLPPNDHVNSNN

ADGAWAWVWLTETAVGAAK-biotin [aCD32a peptide published by Berntzen et al, …-biotin]: the IL-6 production of pDCS in PBMC after stimulation with CPG-C was 75 times and the TNFα induction in PBMC after stimulation with CPG-C is 3 times.
